{"source": "patent US20100249184A1", "about": "“INDUCTION AND/OR MAINTENANCE OF TUMOR DORMANCY BY DISRUPTION OF UROKINASE PLASMINOGEN ACTIVATOR RECEPTOR-INTEGRIN INTERACTION” (MOUNT SINAI SCHOOL OF MEDICINE, priority 2007, published 2010)", "key": {"purified α3β1-integrin": {"biological_target": "T1, purified α3β1-integrin (Homo sapiens, UniProt P05556+P26006)", "T1 construct": "purchased Chemicon International (Temecula, Calif.)", "T1 sequence (P26006 33-872 limits assumed)": "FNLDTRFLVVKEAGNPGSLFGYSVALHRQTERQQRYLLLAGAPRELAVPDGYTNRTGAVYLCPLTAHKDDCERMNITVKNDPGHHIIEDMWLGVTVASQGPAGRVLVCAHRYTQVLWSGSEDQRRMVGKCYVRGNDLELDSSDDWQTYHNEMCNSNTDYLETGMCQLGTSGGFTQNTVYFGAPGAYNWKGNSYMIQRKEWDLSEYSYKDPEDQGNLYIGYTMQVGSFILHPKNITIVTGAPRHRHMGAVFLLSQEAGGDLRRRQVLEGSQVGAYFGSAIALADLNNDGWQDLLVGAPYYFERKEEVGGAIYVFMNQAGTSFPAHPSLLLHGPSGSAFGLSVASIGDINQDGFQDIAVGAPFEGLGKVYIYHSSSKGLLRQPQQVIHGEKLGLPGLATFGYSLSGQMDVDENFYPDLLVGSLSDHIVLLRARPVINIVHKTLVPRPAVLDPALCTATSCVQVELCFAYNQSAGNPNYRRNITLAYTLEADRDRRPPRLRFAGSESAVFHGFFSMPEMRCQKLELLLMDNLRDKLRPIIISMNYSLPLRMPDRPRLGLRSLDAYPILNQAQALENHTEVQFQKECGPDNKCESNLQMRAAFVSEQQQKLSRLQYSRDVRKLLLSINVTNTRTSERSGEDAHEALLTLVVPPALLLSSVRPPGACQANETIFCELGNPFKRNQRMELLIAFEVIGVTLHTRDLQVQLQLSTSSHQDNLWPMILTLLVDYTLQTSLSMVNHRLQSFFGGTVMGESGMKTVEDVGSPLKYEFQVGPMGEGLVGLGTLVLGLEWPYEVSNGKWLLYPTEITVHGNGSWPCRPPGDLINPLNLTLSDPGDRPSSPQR", "T1 sequence (P26006 873-1051 limits assumed)": "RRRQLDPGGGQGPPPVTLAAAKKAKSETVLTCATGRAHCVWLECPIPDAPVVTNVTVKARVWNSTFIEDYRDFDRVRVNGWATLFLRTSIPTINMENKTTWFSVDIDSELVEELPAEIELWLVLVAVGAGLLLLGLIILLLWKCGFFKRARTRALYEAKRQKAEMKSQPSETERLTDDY", "T1 sequence (P05556 21-798)": "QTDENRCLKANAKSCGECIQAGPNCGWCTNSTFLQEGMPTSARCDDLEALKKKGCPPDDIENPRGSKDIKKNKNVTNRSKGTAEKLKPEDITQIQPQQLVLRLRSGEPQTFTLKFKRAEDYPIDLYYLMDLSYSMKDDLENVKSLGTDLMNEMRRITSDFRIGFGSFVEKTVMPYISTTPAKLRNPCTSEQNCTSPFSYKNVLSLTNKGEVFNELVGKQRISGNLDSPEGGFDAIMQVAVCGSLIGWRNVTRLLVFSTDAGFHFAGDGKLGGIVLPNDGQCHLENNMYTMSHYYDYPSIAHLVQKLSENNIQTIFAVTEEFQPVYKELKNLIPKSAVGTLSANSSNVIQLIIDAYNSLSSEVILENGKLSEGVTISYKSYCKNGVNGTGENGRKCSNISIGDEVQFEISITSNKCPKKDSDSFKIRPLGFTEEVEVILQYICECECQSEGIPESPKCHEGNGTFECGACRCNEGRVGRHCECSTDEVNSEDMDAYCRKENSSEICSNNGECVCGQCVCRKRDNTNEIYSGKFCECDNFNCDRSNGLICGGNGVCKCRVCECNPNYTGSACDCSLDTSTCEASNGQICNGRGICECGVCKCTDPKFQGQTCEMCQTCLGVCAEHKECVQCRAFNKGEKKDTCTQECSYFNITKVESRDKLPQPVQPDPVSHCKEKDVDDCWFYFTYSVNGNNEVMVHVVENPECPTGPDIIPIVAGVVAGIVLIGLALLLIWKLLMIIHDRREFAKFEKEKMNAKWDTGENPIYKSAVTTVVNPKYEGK", "test": "Solid phase dot-ELISA with α3β1-integrin", "format": "binding", "details": "α3β1-integrin 750 ng/ml, increasing concentrations of immobilized suPAR or peptide", "protocol": "FIGS. 1A-H show the interaction between α5β1-integrin and immobilized uPAR and uPAR-derived synthetic peptides through solid-phase dot-ELISA. […] Bound integrin was detected with anti-α5 integrin antibody followed by goat anti-rabbit IgG (H+L) HRP conjugated secondary antibody and developed with enhanced chemiluminescence (“ECL”). FIG. 1B is a graph showing that binding of integrin to suPAR is saturable. SuPAR (1.5 μg) was immobilized on nitrocellulose membrane in triplicates, incubated with 0, 0.1, 0.5, 1, 2, and 4 μg/ml of α5β1-integrin and tested for integrin binding as in FIG. 1A. The dots were scanned with NIH Image. Mean and SE are shown. […] Peptides representing regions located in each of the three uPAR-domains were immobilized, incubated with α5β1-integrin, and analyzed as in FIG. 1A. Only peptide 240-248 binds α5β1-integrin. FIG. 1D is a graph showing that peptide 240-248 inhibits integrin binding to suPAR. The α5β1-integrin (750 ng/ml) was pre-incubated for 15 min at room temperature with 100 fold molar excess of 240-248 or 17-24 peptides, or with no peptide (Control) and the mixtures were applied to immobilized suPAR (1.5 μg), 2 dots per mixture, and developed as in FIG. 1A. […] Bound integrins were detected with the appropriate previously titrated antibodies followed by goat anti-rabbit IgG (H+L) HRP conjugated secondary antibody and detection with ECL. […]"}, "[1]": {"biological_target": "T2, α5β1-integrin/uPAR complex (Homo sapiens, UniProt P05556+P08648)", "T2 construct": "endogenous in cells; host or cells: T-HEp3 (human epidermoid carcinoma) cell lysate", "T2 sequence (P08648 42-894 limits assumed)": "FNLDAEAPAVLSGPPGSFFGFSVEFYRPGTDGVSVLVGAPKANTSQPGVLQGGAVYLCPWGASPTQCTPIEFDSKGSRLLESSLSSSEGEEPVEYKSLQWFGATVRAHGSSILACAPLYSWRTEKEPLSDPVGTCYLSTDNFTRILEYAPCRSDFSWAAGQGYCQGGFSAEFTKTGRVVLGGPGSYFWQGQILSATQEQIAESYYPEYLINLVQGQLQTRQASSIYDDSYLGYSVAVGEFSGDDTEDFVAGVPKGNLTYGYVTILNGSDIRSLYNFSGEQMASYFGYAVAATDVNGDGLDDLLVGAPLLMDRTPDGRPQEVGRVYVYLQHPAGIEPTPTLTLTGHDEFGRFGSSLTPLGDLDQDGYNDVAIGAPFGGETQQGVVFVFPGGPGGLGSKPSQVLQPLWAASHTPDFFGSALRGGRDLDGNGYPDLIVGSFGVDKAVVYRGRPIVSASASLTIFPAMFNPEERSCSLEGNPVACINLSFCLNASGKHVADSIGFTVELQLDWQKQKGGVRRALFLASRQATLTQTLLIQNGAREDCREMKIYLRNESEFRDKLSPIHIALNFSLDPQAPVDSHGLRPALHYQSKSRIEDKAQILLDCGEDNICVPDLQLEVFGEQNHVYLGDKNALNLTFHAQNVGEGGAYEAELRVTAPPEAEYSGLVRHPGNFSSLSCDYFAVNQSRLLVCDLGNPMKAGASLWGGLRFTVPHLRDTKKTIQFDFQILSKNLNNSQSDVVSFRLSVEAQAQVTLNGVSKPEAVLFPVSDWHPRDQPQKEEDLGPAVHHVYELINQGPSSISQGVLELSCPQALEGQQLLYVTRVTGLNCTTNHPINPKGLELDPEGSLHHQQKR", "T2 sequence (P08648 895-1049 limits assumed)": "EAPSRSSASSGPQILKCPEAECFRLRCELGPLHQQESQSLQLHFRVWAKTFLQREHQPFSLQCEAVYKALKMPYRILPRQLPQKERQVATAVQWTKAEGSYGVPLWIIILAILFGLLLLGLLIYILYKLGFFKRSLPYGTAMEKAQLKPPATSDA", "T2 sequence (P05556 21-798)": "as the sequence (P05556 21-798) above", "test": "Disruption of preformed uPAR/α5β1-integrin complex (co-immunoprecipitation)", "format": "biochemical", "details": "cell lysates incubated with 20 μM peptide, 20 min at 4° C., pull-down with anti-α5β1 (HA5)", "protocol": "FIGS. 5A-B show the physical interaction between uPAR and α5β1-integrin. […] D-HEp3 cells were transfected with vector (pcDNA3.1) alone or with constructs expressing uPAR^wt or uPAR^S245A and after 48 hrs the cells were surface biotinylated and lysed as described in the Examples. Half of each lysate (0.8 mg of protein) was immunoprecipitated with 5 μg monoclonal anti-uPAR(R3) antibody and half with 5 μg monoclonal anti-α5β1-integrin (HA5) antibody. Isotype-matched IgG served as negative control. The immunoprecipitates were separated on an SDS-PAGE and the bands were detected with streptavidin-HRP conjugate and ECL. […] The numbers represent uPAR precipitated by anti-α5β1 antibody as percent of total uPAR. The experiment was repeated 5 times using the same and additional anti-integrin and anti-uPAR antibodies with essentially similar results. FIG. 5B is a graph showing the disruption of uPAR and α5β1-integrin complex with peptides 240-248 and S245A. T-HEp3 cells were surface biotinylated and lysed as described in the Examples. The lysate was precleared with isotype-matched IgG and aliquots containing 0.8 mg protein were incubated with peptides 240-248 and S245A (5 μM and 20 μM) or without peptides (Control, C) for 20 min at 4° C. followed by IP with 5 μg of monoclonal anti-α5β1-integrin (HAS) antibody for 90 min. The immunoprecipitates were analyzed as in FIG. 5A and scanned with NIH Image. […]"}}, "note": "“Also recorded” adds a separate entry of the source."}
{"substance": "peptide 240-248: synthetic uPAR-derived peptide, domain III residues 240-248: GCATASMCQ (SEQ ID NO:9)", "values": [{"measurement": "α3β1-integrin binding compared to α5β1-integrin", "setting": "purified α3β1-integrin", "result": "dots of much lesser intensity; also recorded: bound only weakly"}, {"measurement": "disruption of preformed uPAR/integrin complex", "setting": "[1]", "result": "disrupted"}]}
